{"source": "patent US9850293B2", "about": "“Targeting trastuzumab-resistant HER2+ breast cancer with a HER3-targeting nanoparticle” (priority 2014, dated 2017)", "molecules": {"B1": {"name": "HerDox: non-covalent complex of HerPBK10, double-stranded oligonucleotide and intercalated Dox (Unit A+Unit B+Unit C) (conjugate)", "chain": "SHLVKCAEKEKTFCVNGGECFMVKDLSNPSRYLCKCQPGFTGARCTENVPMKVQNQEKAEELYQKMRRAAMYEEGPPPSYESVVSAAPVAAALGSPFDAPLDPPFVPPRYLRPTGGRNSIRYSELAPLFDTTRVYLVDNKSTDVASLNYQNDHSNFLTTVIQNNDYSPGEASTQTINLDDRSHWGGDLKTILHTNMPNVNEFMFTNKFKARVMVSRLPTKDNQVELKYEWVEFTLPEGNYSETMTIDLMNNAIVEHYLKVGRQNGVLESDIGVKFDTRNFRLGFDPVTGLVMPGVYTNEAFHPDIILLPGCGVDFTHSRLSNLLGIRKRQPFQEGFRITYDDLEGGNIPALLDVDAYQASLKDDTEQGGGGAGGSNSSGSGAEENSNAAAAAMQPVEDMNDHAIRGDTFATRAEEKRAEAEAAAEAAAPAAQPEVEKPQKKPVIKPLTEDSKKRSYNLISNDSTFTQYRSWYLAYNYGDPQTGIRSWTLLCTPDVTCGSEQVYWSLPDMMQDPVTFRSTRQISNFPVVGAELLPVHSKSFYNDQAVYSQLIRQFTSLTHVFNRFPENQILARPPAPTITTVSENVPALTDHGTLPLRNSIGGVQRVTITDARRRTCPYVYKALGIVSPRVLSSRTFKKKKKKKKKK", "modifications": "left off: small tags and cut ends"}}, "key": {"[1]": {"test_system": "MDA-MB-435", "assay": "Cytotoxicity on cell lines (HerDox dose curves)", "format": "cell-based, human", "details": "concentration yielding 50% reduction in cell survival, mean ± SD", "experimental": "FIG. 17 (B) depicts toxicity to cells displaying differential HER2. Cytotoxicities from a range of HerDox doses were assessed on each cell line by metabolic assay and confirmed by crystal violet stain. LD50 values shown in log scale were determined by non-linear regression analyses of HerDox dose curves using a scientific graphing program and confirmed using a calculator. The relative HER2 level of each cell line is shown next to each LD50 value.\nThe inventors measured cell surface levels of HER subunits on various cell lines and types described herein, as previously described levels may not reflect the actual levels in the available cells used. The inventors acquired the indicated cell lines from ATCC and the NIH/NCI and profiled these with respect to HER subunit levels (FIG. 17 (A)). To assess whether HerDox induces toxicity in accordance to HER2 levels, the inventors selected lines displaying HER2 at relatively high (SKBR3), moderate (MDA-MB-435, MDA-MB-453, HeLa), and low to undetectable (MDA-MB-231) levels, and performed cytotoxicity dose curves."}, "[2]": {"test_system": "T47D", "assay": "Cytotoxicity on cell lines (HerDox dose curves)", "format": "cell-based, human", "details": "concentration yielding 50% reduction in cell survival, mean ± SD"}, "[3]": {"assay": "HerDox stability in serum-containing media", "format": "in vitro ADME", "details": "10% fetal bovine serum media, 37° C.", "experimental": "FIG. 6 (B) mimics extended exposure of HerDox to cells in culture medium. HerDox immobilized on Ni-NTA beads were incubated with bovine serum in DMEM for the indicated times at 37° C. before each sample was pelleted. […] Relative Dox release or retention in serum is expressed as normalized to control (corresponding sample lacking serum). N=3 per time point.\nThe inventors tested the stability of HerDox over 12 days under different storage temperatures: 40° C., room temperature, or 37° C. […] The inventors also examined HerDox stability in serum-containing media at 37° C. […] Dox retention in the conjugate was also assessed by eluting the conjugate from the beads at each time point."}, "[4]": {"assay": "Stability in mouse whole blood", "format": "in vitro ADME", "details": "0.12 mg/mL Dox, 37° C., up to one hour", "experimental": "FIG. 13 illustrates stability in mouse whole blood. […] As 0.5 mM EDTA was used as an anticoagulant, HerDox in EDTA alone (− blood) was processed in parallel. Bars represent fluorescence of retained (retentates) or released (filtrates) Dox as a percentage of the total fluorescence of each sample. Scale of Y-axis is adjusted to show presence of filtrate samples. N=3 per treatment.\n(A) depicts a graphic of HerDox formed by non-covalent, serum-stable self-assembly, showing HerPBK10 with functional domains delineated, and electrophilic binding with Dox-intercalated ds-oligo. (B) depicts a CryoEM image of HerDox particles. (C) is a HPLC chromatogram of HerDox showing elution profile of Dox absorbance. […] (D) illustrates the protection of ds-oligo from serum nuclease digestion by HerPBK10. The ds-oligo was incubated for 20 min in 100% mouse serum (Abcam, Cambridge, Mass., USA) before PAGE and EtBr staining to visualize the DNA. (E) illustrates that HerDox remains stable in blood. […] N=3. *, p<0.05, compared to respective retentates.\nAs the anticoagulant, 0.5 mM EDTA, was present in the blood collection, parallel samples were incubated at 37° C. in EDTA alone. Samples representing input HerDox (before incubation in blood) were incubated at 37° C. in HEPES-buffered saline."}, "[5]": {"test_system": "U251 human glioma cells", "assay": "Toxicity to glioma cells (cell count)", "format": "cell-based", "details": "four days", "experimental": "Significant differences were determined by 2-tailed tests.\nCells were trypsinized and counted on the last day."}, "[6]": {"test_system": "SKBR3 parental cells", "assay": "Tumor cell killing in culture", "format": "cell-based, human", "experimental": "FIG. 21 depicts graph that show the results of the administration of HerDox on various cells. […] N=3. *=p<0.05 compared to parental. […] N=3.\nN=3. *, p<0.05 compared to parental. […] N=3. […] Parental and resistant cell lines were treated with HerDox−/+HER3 blocking peptide (ErbB3 human; Prospec), and tested for cell survival 48 hours later. […] Treatments were compared to mock (saline)-treatment. […] N=3. *, p<0.05 compared to parental. […] N=3.\nParental cell lines were pre-treated with 0.5 mg/mL Tz for 24 hours before testing these cells for surface HER3 levels. […] Parental cell lines were pre-treated with 0.5 mg/mL Tz for 24 hours before testing these cells for HerPBK10 binding. […] SKBR3 Parental cells were treated with Tz at indicated concentrations (see upper X-axes) 4 and 24 hours before HerDox treatment and assayed for survival at 48-72 h after treatment. N=3. […] SK-474 Parental cells were treated with Tz at indicated concentrations (see upper X-axes) 4 and 24 hours before HerDox treatment and assayed for survival at 48-72 h after treatment. N=3. […] MDA-MB-435 non-resistant cells were treated with Tz at indicated concentrations (see upper X-axes) 4 and 24 hours before HerDox treatment and assayed for survival at 48-72 h after treatment. […] N=3. […] Tz-resistant cells were treated with Tz at indicated concentrations (see upper X-axes) 4 and 24 hours before HerDox treatment and assayed for survival at 48-72 h after treatment. N=3.\nEach therapeutic was administered at concentration ranges previously established for eliciting therapeutic efficacy.\nPrevious studies have shown that HER3 is transcriptionally and translationally elevated as soon as 4 hours after HER2 inhibition, either by lapatinib or gene silencing. […]"}}, "note": "Entries after “also recorded” stand apart in the source; their conditions may differ.", "data": [{"molecule": "B1", "values": [{"measurement": "EC50", "setting": "[1]", "result": "0.74 ± 0.07", "unit": "µM"}, {"measurement": "EC50", "setting": "[2]", "result": "0.64 ± 0.04", "unit": "µM"}, {"measurement": "Dox release from conjugate in serum", "setting": "[3]", "result": "no significant release of Dox"}, {"measurement": "Dox retention by conjugate in serum", "setting": "[3]; each time point", "result": "completely retained"}, {"measurement": "loss of Dox from conjugate in whole blood", "setting": "[4]", "result": "no detectable loss of Dox from the conjugate"}, {"measurement": "toxicity relative to the equivalent concentration of Dox", "setting": "[5]; 0.5 μM or 1 μM", "result": "8-10 times"}, {"measurement": "factor less HerDox eliciting the same toxicity as Dox", "setting": "[5]", "result": 10, "unit": "×"}, {"measurement": "response of parental SKBR3 cells", "setting": "[6]; 48-72 h after treatment", "result": "improved cell killing compared to trastuzumab; also recorded: improved cell killing compared to Tz"}, {"measurement": "cell death", "setting": "[6]; parental SKBR3, 48-72 h after treatment", "result": 50, "unit": "%"}, {"measurement": "further augmentation of HerDox toxicity by trastuzumab pre-treatment", "setting": "[6]; parental SKBR3, Tz 4 or 24 hours before HerDox, highest doses tested", "result": "40-50%"}]}]}
